# Data published in the supplement of paper PMC10567573.
# B1: TLE6 (parent)
# chain: FWHDTLTEQLWRIFAGVHDEKAKP
# Variants of: B1
# Experiment: protein stability index of a GFP-peptide fusion (GPS, HEK-293T) (PSI 1-6); higher = more stable
# Conditions: c terminus: a fixed tail appended
# 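Note: lentivirally expressed fusions sorted by FACS into six bins by GFP to DsRed ratio, PSI derived from sequencing read proportions per bin multiplied by bin number.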
row,Variant,protein stability index
1,FWHDTLMEQLWRIFAGVHDEKAKP,2.19
2,FWHDTLDEQLWRIFAGVHDEKAKP,2.01
3,FWHDTLLEQLWRIFAGVHDEKAKP,2.3
4,FWHDTLFEQLWRIFAGVHDEKAKP,2.03
5,FWHDTLREQLWRIFAGVHDEKAKP,1.89
6,FWHDTLGEQLWRIFAGVHDEKAKP,2.28
7,FWHDTLKEQLWRIFAGVHDEKAKP,2.16
8,FWHDTLAEQLWRIFAGVHDEKAKP,1.92
9,FWHDTLQEQLWRIFAGVHDEKAKP,2.46
10,FWHDTLSEQLWRIFAGVHDEKAKP,2.07
11,FWHDTLIEQLWRIFAGVHDEKAKP,2.04
12,FWHDTLPEQLWRIFAGVHDEKAKP,2.01
13,FWHDTLHEQLWRIFAGVHDEKAKP,2.24
14,FWHDTLWEQLWRIFAGVHDEKAKP,2
15,FWHDTLYEQLWRIFAGVHDEKAKP,2.31
16,FWHDTLNEQLWRIFAGVHDEKAKP,1.36
17,FWHDTLCEQLWRIFAGVHDEKAKP,3.13
18,FWHDTLVEQLWRIFAGVHDEKAKP,1.86
19,FWHDTLEEQLWRIFAGVHDEKAKP,1.42
20,FWHDTLTSQLWRIFAGVHDEKAKP,1.64
21,FWHDTLTDQLWRIFAGVHDEKAKP,2.02
22,FWHDTLTGQLWRIFAGVHDEKAKP,1.69
23,FWHDTLTYQLWRIFAGVHDEKAKP,2.53
24,FWHDTLTFQLWRIFAGVHDEKAKP,2.17

row,Variant,protein stability index
1,FWHDTLTAQLWRIFAGVHDEKAKP,1.66
2,FWHDTLTQQLWRIFAGVHDEKAKP,2.64
3,FWHDTLTMQLWRIFAGVHDEKAKP,1.1
4,FWHDTLTHQLWRIFAGVHDEKAKP,2.52
5,FWHDTLTIQLWRIFAGVHDEKAKP,1.66
6,FWHDTLTPQLWRIFAGVHDEKAKP,1.76
7,FWHDTLTKQLWRIFAGVHDEKAKP,2.04
8,FWHDTLTVQLWRIFAGVHDEKAKP,2.95
9,FWHDTLTTQLWRIFAGVHDEKAKP,1.74
10,FWHDTLTCQLWRIFAGVHDEKAKP,1.62
11,FWHDTLTLQLWRIFAGVHDEKAKP,2.23
12,FWHDTLTWQLWRIFAGVHDEKAKP,2.35
13,FWHDTLTRQLWRIFAGVHDEKAKP,1.85
14,FWHDTLTNQLWRIFAGVHDEKAKP,1.79
15,FWHDTLTEQAWRIFAGVHDEKAKP,2.17
16,FWHDTLTEQGWRIFAGVHDEKAKP,2.24
17,FWHDTLTEQKWRIFAGVHDEKAKP,2.59
18,FWHDTLTEQEWRIFAGVHDEKAKP,2.41
19,FWHDTLTEQQWRIFAGVHDEKAKP,2.19
20,FWHDTLTEQHWRIFAGVHDEKAKP,2.54
21,FWHDTLTEQRWRIFAGVHDEKAKP,1.6
22,FWHDTLTEQIWRIFAGVHDEKAKP,2.09
23,FWHDTLTEQPWRIFAGVHDEKAKP,1.61
24,FWHDTLTEQFWRIFAGVHDEKAKP,1.68

row,Variant,protein stability index
1,FWHDTLTEQSWRIFAGVHDEKAKP,2.61
2,FWHDTLTEQCWRIFAGVHDEKAKP,1.94
3,FWHDTLTEQDWRIFAGVHDEKAKP,2.34
4,FWHDTLTEQNWRIFAGVHDEKAKP,1.92
5,FWHDTLTEQMWRIFAGVHDEKAKP,1.88
6,FWHDVLTEQLWRIFAGVHDEKAKP,2.62
7,FWHDWLTEQLWRIFAGVHDEKAKP,1.46
8,FWHDYLTEQLWRIFAGVHDEKAKP,2.35
9,FWHDTHTEQLWRIFAGVHDEKAKP,2.35
10,FWHDTQTEQLWRIFAGVHDEKAKP,2.31
11,FWHDTKTEQLWRIFAGVHDEKAKP,2.4
12,FWHDTCTEQLWRIFAGVHDEKAKP,1.97
13,FWHDTRTEQLWRIFAGVHDEKAKP,2.53
14,FWHDTTTEQLWRIFAGVHDEKAKP,1.81
15,FWHDTFTEQLWRIFAGVHDEKAKP,1.58
16,FWHDTSTEQLWRIFAGVHDEKAKP,2.66
17,FWHDTMTEQLWRIFAGVHDEKAKP,1.85
18,FWHDTITEQLWRIFAGVHDEKAKP,2.36
19,FWHDTNTEQLWRIFAGVHDEKAKP,2.31
20,FWHDTVTEQLWRIFAGVHDEKAKP,1.75
21,FWHDTWTEQLWRIFAGVHDEKAKP,1.27
22,FWHDTGTEQLWRIFAGVHDEKAKP,1.77
23,FWHDTATEQLWRIFAGVHDEKAKP,2.67
24,FWHDTPTEQLWRIFAGVHDEKAKP,1.63

row,Variant,protein stability index
1,FWHDTETEQLWRIFAGVHDEKAKP,1.91
2,FWHDTYTEQLWRIFAGVHDEKAKP,1.11
3,FWHDTDTEQLWRIFAGVHDEKAKP,1.46
4,FWHDTLTENLWRIFAGVHDEKAKP,2.45
5,FWHDTLTEHLWRIFAGVHDEKAKP,2.59
6,FWHDTLTEYLWRIFAGVHDEKAKP,1.65
7,FWHDTLTEFLWRIFAGVHDEKAKP,1.97
8,FWHDTLTEILWRIFAGVHDEKAKP,2.55
9,FWHDTLTEELWRIFAGVHDEKAKP,1.58
10,FWHDTLTEKLWRIFAGVHDEKAKP,1.51
11,FWHDTLTEDLWRIFAGVHDEKAKP,1.97
12,FWHDTLTEPLWRIFAGVHDEKAKP,2.69
13,FWHDTLTEALWRIFAGVHDEKAKP,3.78
14,FWHDTLTEWLWRIFAGVHDEKAKP,2.79
15,FWHDTLTETLWRIFAGVHDEKAKP,2.38
16,FWHDTLTELLWRIFAGVHDEKAKP,1.79
17,FWHDTLTERLWRIFAGVHDEKAKP,2.48
18,FWHDTLTESLWRIFAGVHDEKAKP,2.04
19,FWHDTLTECLWRIFAGVHDEKAKP,3.67
20,FWHDTLTEMLWRIFAGVHDEKAKP,1.74
21,FWHDTLTEGLWRIFAGVHDEKAKP,2.65
22,FWHDTLTEVLWRIFAGVHDEKAKP,4.83
